assay: yeast display, Sf9 membrane polyspecificity reagent, FACS + sequencing; frameworks hold sequencing errors
Procedure, shortened: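 A nanobody's polyreactivity label depends on the gate it was sorted from. Yeast display cells were stained with 10% biotinylated, detergent-solubilized Sf9 membrane reagent for 1 hour at 4 °C, enriched on streptavidin microbeads and sorted by FACS. The low and high (top ~1%) gates were set on anti-HA fluorescence for expression and streptavidin fluorescence for reagent binding.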

Sequence	polyreactivity (PSR sort gate)
QVQLVESGGGLVQAGGRLRLSCAASGFTYPEYAMGWYRQAPGKEMELVAAIDSGDGSTYYADSVKGRFTISRDNAKNTVYLQMISLKPEDTAVYYCATDRYPHSATPGDYWGQGTQVTVSS	low polyreactivity
QVQLVESGGGLVQAGCSLRLSWAASGRIIKYNAMGWYRQAPGKERELVAVITSGGSTYYAYSVKGRFTISRDNAKNTVYLQMNSLKPEDTAVYYCAAGFGDGPGNGYYSRYSWDDDYWGQGTQVTVSS	low polyreactivity
HVQLVESGGGLVQAGGSLRLSCAASGRILVHNAMGWYRQAPGKERELVAVITARGASTYYADSVKGRFTISRDNAKNSVYLQMNSLKPEDTAVYYCATDKRPKYYNQYDYWGQGTQVTVSS	low polyreactivity
QVQLVESGGGLVQAGGSLRLSCAASGRTFYHYTMGWYRQAPGKERELVARITRRVGSTYYADSVKGRFTISRDNAKNTVYLQMNSLKPEDTAVYYCNDKSGLYRYLLDYWGQGTQVTVSS	high polyreactivity
QVQLEESGGGLVQAGGTLRLSCAASGSTYVPYAMGWNRQETGKERELVSAIRRRGDSTNYADSVKGRFTISRDNAKNTVYLQMNSLKPEDTAVYYCAVRPYRSACGSVTRGAYYYWGQGTQVTVSS	high polyreactivity
QVQLVESGGGLVQAGGSLRLSCAASGITFGPYAMGWYRQAPGKERELVATISSSGGSTYYADSVKGRFTISRDNAKNTVYLQMNSLIPEDTAVYYCNAGYAPYLGAYDYWGQGTQVTVSS	low polyreactivity
QVQLVESGRGLVQAGGSLRLSCAASGRSFAVYAMAWYRPAPGKVMELVAAISSGGSTYYADSVKGRFTSSRDNAKNTVYVQMNSLKPEDSSVSYCAAGWKRLSGRKHYYWGQGTQVTVSS	high polyreactivity
QVQLVESGGGLVQAGGSLRLSCAASGSIFDINAMGWYRQAPWKERELVAAISLSAGSTYYADSVKGRFTISRDNSKNTVYFQMNSLYPDDAAVFYCNADGWYGYWGQVTQVTVSS	low polyreactivity
QVQLVESGGGLVQAGGSLRLSCAASGFTFRNYAMGWYRQAPGKERELVAAISKRGGNTYYADSVKGRFTISRDNAKNTVYLQLYSLKREDTAVYYCAADYQFSQDVWHFGYWGLGTQVTVSS	high polyreactivity
QVQLVESGGGIVQAGGSLRLSCAASGRTLQIYAMGRYRQAPGKERELVAAISSSGGSTYYADSVKGRFTISRDNEKNTVYLQMNSLKPEDTAVYYCAVDGYGYKDDYWGQGTQVTVSS	high polyreactivity
QVQLVESGGGLVQAGGSLRLSCAASGRTFWSYAMGWYRQAPGKVRELVAAITSSGGTTNYADSVKGRFTISRDNAKNTVYLQMNSLKPEDTAVYYCAADNGGAGYYYGYVWYDYWGQGTQVTVSS	low polyreactivity
QVQLVESGGGLVQAGGSLRLSCAASGRTFYYYAMGWYRQAPGKERELVAGITATGSSTYYADSVKGRFTISRDNAKYTVYLQMNSLKPEDTAVYYCAADGYRIDVYHADYRYDYWGQGTQVTVSS	low polyreactivity
QVQLVESGGGLVQAGGSLRLSCAASGITFAGYAMRWYRQAPGKERELVASMTWGGGRTYYADSVKRRFTISRDNAKNTVYLQMNSLKPEDTAVYYCATRRRPQYNKYDYWGQGTQVTVSS	high polyreactivity
QVQLVESGGGLVQAGGILRLSCAASGSIFGSYAMGWYRQAPGKERELVAGITYRGSSTYYADSVKGRFTISRDNAKNTVYLQMNSLKPEDTAVYYCAADPVFDEYDYWGQGTQVTVSS	low polyreactivity
QVQLVESGGGLVQAGGSLRLSCAASGSTFHPNAMGWYRQAPVKERELVAAISRGGSTNYADSVKGRFTISRDNAKNTVYLQMISLKPEDSAVYYCAKDFFGISSDPVVMDYWGQGTQVTVSS	low polyreactivity
QVQLVESGGGLVQAGGSLRLSCAASGIIFEYYTMGWYRQAPGNERELVASITYDGDSTYYADSVKGRFTISRDHAKNTVYLQINSLKPEDTAVYFCAADYYYVYSSFGHYYWGQGTQVTVSS	low polyreactivity
QVQLVESGGGLVQAGGSLRLSCAASGRTFVVYAMGWYRQAPGKERELVAAISGRGGRTYYADSVKGRFTISRDNAKNTVYLQMNSLKPEETAVYYCATRSSVPKRFTRYGYWGHGTQVTVSS	high polyreactivity
